From PMC5338821, “Structure determination of a major facilitator peptide transporter: Inward facing PepTSt from Streptococcus thermophilus crystallized in space group P3_(1)21” (PLoS ONE, 2017)

Target: the molecule itself
Test: SEC; PepTSt solubilized and purified in LMNG (0.01%), final SEC step

B1: peptide transporter PepTSt from Streptococcus thermophilus (wild-type) (natural protein)
chain: MEDKGKTFFGQPLGLSTLFMTEMWERFSYYGMRAILLYYMWFLISTGDLHITRATAASIMAIYASMVYLSGTIGGFVADRIIGARPAVFWGGVLIMLGHIVLALPFGASALFGSIILIIIGTGFLKPNVSTLVGTLYDEHDRRRDAGFSIFVFGINLGAFIAPLIVGAAQEAAGYHVAFSLAAIGMFIGLLVYYFGGKKTLDPHYLRPTDPLAPEEVKPLLVKVSLAVAGFIAIIVVMNLVGWNSLPAYINLLTIVAIAIPVFYFAWMISSVKVTSTEHLRVVSYIPLFIAAVLFWAIEEQGSVVLATFAAERVDSSWFPVSWFQSLNPLFIMLYTPFFAWLWTAWKKNQPSSPTKFAVGLMFAGLSFLLMAIPGALYGTSGKVSPLWLVGSWALVILGEMLISPVGLSVTTKLAPKAFNSQMMSMWFLSSSVGSALNAQLVTLYNAKSEVAYFSYFGLGSVVLGIVLVFLSKRIQGLMQGVE
notes: PepTSt, major facilitator superfamily peptide transporter of Streptococcus thermophilus; Dimer in LMNG and DDM, monomer in DM and NM; also called Ce27; source: Escherichia coli C41, membrane solubilization, purified (IMAC, SEC) in DDM, DM, NM or LMNG; not shown: hexahistidine, C-terminal, cleaved
**Q.** With B1 as the protein, how does the “stoichiometry N” value read?
**A.** Its value is 2.
